IntAct's records for PubMed 21224891

B1: X-linked retinitis pigmentosa GTPase regulator-interacting protein 1 (Homo sapiens), Q96KN7 (parent)
chain: MSHLVDPTSGDLPVRDIDAIPLVLPASKGKNMKTQPPLSRMNREELEDSFFRLREDHMLVKELSWKQQDEIKRLRTTLLRLTAAGRDLRVAEEAAPLSETARRGQKAGWRQRLSMHQRPQMHRLQGHFHCVGPASPRRAQPRVQVGHRQLHTAGAPVPEKPKRGPRDRLSYTAPPSFKEHATNENRGEVASKPSELVSGSNSIISFSSVISMAKPIGLCMPNSAHIMASNTMQVEEPPKSPEKMWPKDENFEQRSSLECAQKAAELRASIKEKVELIRLKKLLHERNASLVMTKAQLTEVQEAYETLLQKNQGILSAAHEALLKQVNELRAELKEESKKAVSLKSQLEDVSILQMTLKEFQERVEDLEKERKLLNDNYDKLLESMLDSSDSSSQPHWSNELIAEQLQQQVSQLQDQLDAELEDKRKVLLELSREKAQNEDLKLEVTNILQKHKQEVELLQNAATISQPPDRQSEPATHPAVLQENTQIEPSEPKNQEEKKLSQVLNELQVSHAETTLELEKTRDMLILQRKINVCYQEELEAMMTKADNDNRDHKEKLERLTRLLDLKNNRIKQLEGILRSHDLPTSEQLKDVAYGTRPLSLCLETLPAHGDEDKVDISLLHQGENLFELHIHQAFLTSAALAQAGDTQPTTFCTYSFYDFETHCTPLSVGPQPLYDFTSQYVMETDSLFLHYLQEASARLDIHQAMASEHSTLAAGWICFDRVLETVEKVHGLATLIGAGGEEFGVLEYWMRLRFPIKPSLQACNKRKKAQVYLSTDVLGGRKAQEEEFRSESWEPQNELWIEITKCCGLRSRWLGTQPSPYAVYRFFTFSDHDTAIIPASNNPYFRDQARFPVLVTSDLDHYLRREALSIHVFDDEDLEPGSYLGRARVPLLPLAKNESIKGDFNLTDPAEKPNGSIQVQLDWKFPYIPPESFLKPEAQTKGKDTKDSSKISSEEEKASFPSQDQMASPEVPIEAGQYRSKRKPPHGGERKEKEHQVVSYSRRKHGKRIGVQGKNRMEYLSLNILNGNTPEQVNYTEWKFSETNSFIGDGFKNQHEEEEMTLSHSALKQKEPLHPVNDKESSEQGSEVSEAQTTDSDDVIVPPMSQKYPKADSEKMCIEIVSLAFYPEAEVMSDENIKQVYVEYKFYDLPLSETETPVSLRKPRAGEEIHFHFSKVIDLDPQEQQGRRRFLFDMLNGQDPDQGHLKFTVVSDPLDEEKKECEEVGYAYLQLWQILESGRDILEQELDIVSPEDLATPIGRLKVSLQAAAVLHAIYKEMTEDLFS
partner: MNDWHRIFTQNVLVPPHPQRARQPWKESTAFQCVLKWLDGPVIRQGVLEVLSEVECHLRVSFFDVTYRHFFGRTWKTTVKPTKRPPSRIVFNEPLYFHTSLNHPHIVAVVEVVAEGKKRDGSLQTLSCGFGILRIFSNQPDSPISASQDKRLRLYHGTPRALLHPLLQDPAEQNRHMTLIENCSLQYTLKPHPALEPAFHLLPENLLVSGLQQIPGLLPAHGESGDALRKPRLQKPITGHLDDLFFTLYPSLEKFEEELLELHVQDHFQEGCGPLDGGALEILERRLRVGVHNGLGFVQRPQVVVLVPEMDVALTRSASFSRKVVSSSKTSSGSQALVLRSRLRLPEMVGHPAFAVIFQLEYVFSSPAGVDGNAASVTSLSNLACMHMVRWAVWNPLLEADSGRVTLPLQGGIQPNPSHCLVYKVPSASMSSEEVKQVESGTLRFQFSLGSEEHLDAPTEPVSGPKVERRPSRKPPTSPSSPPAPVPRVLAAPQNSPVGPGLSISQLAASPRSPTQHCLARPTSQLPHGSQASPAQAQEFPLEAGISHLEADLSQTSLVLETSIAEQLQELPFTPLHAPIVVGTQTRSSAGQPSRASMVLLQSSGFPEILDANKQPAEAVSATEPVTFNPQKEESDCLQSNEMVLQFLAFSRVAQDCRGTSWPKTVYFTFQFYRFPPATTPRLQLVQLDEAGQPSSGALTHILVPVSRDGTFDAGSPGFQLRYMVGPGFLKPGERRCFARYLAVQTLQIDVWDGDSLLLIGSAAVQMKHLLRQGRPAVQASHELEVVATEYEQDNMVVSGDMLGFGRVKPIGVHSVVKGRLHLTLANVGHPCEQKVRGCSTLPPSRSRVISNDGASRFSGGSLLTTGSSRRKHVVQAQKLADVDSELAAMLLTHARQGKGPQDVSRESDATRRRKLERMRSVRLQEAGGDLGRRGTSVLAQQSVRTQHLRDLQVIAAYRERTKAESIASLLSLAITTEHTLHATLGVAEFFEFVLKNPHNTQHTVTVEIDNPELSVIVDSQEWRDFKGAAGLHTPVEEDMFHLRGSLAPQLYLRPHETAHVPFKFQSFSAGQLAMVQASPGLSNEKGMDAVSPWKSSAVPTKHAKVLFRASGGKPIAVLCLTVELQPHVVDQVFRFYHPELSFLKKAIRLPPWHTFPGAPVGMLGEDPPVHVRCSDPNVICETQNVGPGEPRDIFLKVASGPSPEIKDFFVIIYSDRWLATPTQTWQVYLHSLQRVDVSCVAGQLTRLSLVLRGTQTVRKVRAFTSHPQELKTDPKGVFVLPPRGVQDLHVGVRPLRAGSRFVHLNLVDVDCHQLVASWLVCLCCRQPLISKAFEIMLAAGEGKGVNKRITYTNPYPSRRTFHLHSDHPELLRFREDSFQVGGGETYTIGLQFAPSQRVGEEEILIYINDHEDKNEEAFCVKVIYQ

Variants of: B1
Conditions: with nphp4_human NPHP4, O75161

Variant	effect of a mutation on the interaction
Q589H	with no effect
R598Q	decreasing interaction strength
A635G	decreasing interaction strength
A764V	with no effect
T806I	decreasing interaction strength
R812H	increasing interaction strength
A837G	decreasing interaction strength
I838V	decreasing interaction strength

Variants of: B1
Conditions: with nphp4_human NPHP4, O75161
Remark: another data set of the same source

Variant	effect of a mutation on the interaction
R598Q	disrupting interaction strength
